Test results published in the supplement of paper PMC9170038.

What follows are sequences tested on MS2 coat protein (assay: apparent KD of MS2 coat protein; higher = weaker reporter binding). Conditions: Eterna round: R107; input ligand: arginine 13.2 mM.
Summary of the method: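 SNAP-549-labelled MS2 coat protein was titrated onto designed RNA switches that had been transcribed on-chip from Illumina sequencing clusters. Amounts doubled from 0.7 or 1.5 nM to 3 µM in 100 mM Tris-HCl pH 7.5, 80 mM KCl, 4 mM MgCl2, with constant ligand or without. Apparent KD is the median per design of normalised cluster binding-curve fits.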

Row | Sequence | apparent KD of MS2 coat protein [nM]
1 | UAUCCACAUGAGGAUCACCCAUGUAAGGAAGGAGCGGUGAAUGAACCAGGUAGGUCGCCUUGGUGAGGAUCAUCUAUGGAUUCGU [Exclusion - Arginine A (Freestyle 10)] | 28
2 | AACAGACGAGACGAUACCAGUCUCUUAGCGCACAUGAGGAUCACCCAUGUUGGCAAGCUCGACCCUUGGCAGCGUACCUUUGAUC [theeternabot_sameState_MS2_Theo_B_6] | 23.8

Same assay, conditions: Eterna round: R107; input ligand: none

Row | Sequence | apparent KD of MS2 coat protein [nM]
3 | ACGGAUCGGAAACGAUCCGCGGCUAGGGUGCGAGGACCGGUACGGCCGCCACUCGGGUAACAUGAGGAUCACCCAUGUCCGAUUU [ETA NP+V+V2 #13 Same Structure] | 92.7
4 | GCUUGGGUGGCCCAGCCCUGGCAGGGCGAUACCAGCCCGGUAACGGGCCCUUGGCAGCGCACAUGAGGAUCACCCAUGUGGUGCG [#1 Exclusion - Theophylline A Attempt #28 (HarryS)] | 52.4
5 | UCGCUCUGGGUGGAAUCCGGAGAUGUGGAAGGAGCGCUCGAAAGGGCAGGUAGGUCGCCAACGGACAUGAGGAUCACCCAUGUAC [#23 Same State - Arginine A] | 25.4
6 | GCCAUCGGCGGAAGCCGAUGGUAUACGGAAGGAGCGCACGAAAGUGCAGGUAGGUCGCUGAACAUGAGGAUCACCCAUGUAAUAA [#28 Same State - Arginine A] | 18.8
7 | GUAUACAUGAGGAUCACCCAUGUGCCAGAAGGAGCGCUGGAAACGGCAGGUAGGUCGCUGGUAGGUCCUCUAUCUAGACGUUCGG [#17 Exclusion - Arginine A] | 97.5
8 | UUGGGUUUGUGAAGGAGCGGGAAAUAUAUAUAUAUAAUCCUAACAUGAGGAUCACCCAUGUCCCAGGUAGGUCGCGCGGGUUUGG [12.N] | 60.2
9 | GCAUCCUAGUCGGCCGCCACUGCAGUAGCACCUGCUACAUGGAAACAUGAGGAUCACCCAUGUAGCAGGACCGGGACUAGGAUGC [(Trp1)-(TM)''-(TM)'-(Ms2)-(Trp2)_Design8] | 276
10 | ACGCUGAUUGAUUACAAUCAGCGAAAAGAUACCAGUGGGUAAUCCCACCCUUGGCAGCUUAAACAAGAGGAUCACCCUUGUGGUA [TheoAS 16 #MS2Right #BothOrNeither #AlternativeMS2] | 201
11 | GGCACCAGGAGAAGGAGCGUGAAGACAUGAGGAUCACCCAUGUAGAGGCCCGUACCGGGUUCGCAGGUAGGUCGCUCCUGGUGCC [#1 Same State - Arginine B Attempt #14 (HarryS)] | 23
12 | AAUAAGCAGCUGCAUCAUGGGUGAGCAGAUACCAGCUAGGAAACUAGCCCUUGGCAGCUGCAACAUGAGGAUCACCCAUGUAAUA [(T)'-(M)'-(T1)-(T2)-(M1)-(M2)_Design5] | 42.7
13 | GGAUAGAUAGGAGAUACCAGACACAUUAACAUGAGGAUCACCCAUGUGUCUGCACUAAGUGUCCCUUGGCAGCUCGGAGAUCUGA [Same State - Theophylline B] | 45.9
14 | AGUAUCAGUGGAAGGAGCGUCGCGAAUGUCACAUGAGGAUCACCCAUGUCGUCUUGAGCGCGACAGGUAGGUCGCCACGGUAGGC [SS-ArgB4] | 10.1
15 | ACAUGAGGAUCACCCAUGUAACCUAGGGAAGGAGCGGUGUAAGAGCCAGGUAGGUCGCCCACAUGUGGAUCACCCAUGGUGAGGG [#24 Same State - Arginine A] | 29
16 | UAUCCACAUGAGGAUCACCCAUGUAAGGAAGGAGCGGUGAAUGAACCAGGUAGGUCGCCUUGGUGAGGAUCAUCUAUGGAUUCGU [Exclusion - Arginine A (Freestyle 10)] | 36.8

Same assay, conditions: Eterna round: R107; input ligand: theophylline 20 uM

Row | Sequence | apparent KD of MS2 coat protein [nM]
17 | ACGGAUCGGAAACGAUCCGCGGCUAGGGUGCGAGGACCGGUACGGCCGCCACUCGGGUAACAUGAGGAUCACCCAUGUCCGAUUU [ETA NP+V+V2 #13 Same Structure] | 79
18 | GGUUACUCUACGGCCGCCACUGAUAAAUAAUAAACCUGUACAUAAACAUGAGGAUCACCCAUGUACAGGACCGGGUAGUGUAACC [Tryptophan B 7] | 41.2
19 | GCUAGGUCAUCGGCCGCCACUAACGAUGGCUCCAACAUGAGGAUCACCCAUGUGCCACAUGCGCAUAGGACCGGGAUGACCUAGC [SSTB NP+V+V2 #3] | 16.2
20 | ACGAACGAUAGUGAUACCAGACGUACAUGAGGAUCACCCAUGUUUUGGGUAAGGUUAAUAGUCCCUUGGCAGCACUUUAAGUUCG [JR_ExcTheophyB_Sub007] | 80.8
21 | UACCGGUGACUCGAUACCAGUCCUCUAAAAUACAUGAGGAUCACCCAUGUAACCUUCCCAGACCCUUGGCAGCGACACAUGGAUA [theeternabot_sameState_MS2_Theo_B_49] | 176
22 | GACAUGAGGAUCACCCAUGUUUUCUAUGAAGGAGCGUCGGAAAUGACAGGUAGGUCGCAUGGUAGGACUUGUAUCUUGUAUGUAG [EAA NP+V+V2 #10] | 16.2
23 | GCUUGGGUGGCCCAGCCCUGGCAGGGCGAUACCAGCACGGUAACGUGCCCUUGGCAGCGCACAUGAGGAUCACCCAUGUGGUGCG [#1 Exclusion - Theophylline A Attempt #27 (HarryS)] | 161
24 | ACGAACUGUAGUGAUACCAGACACACAUGAGGAUCACCCAUGUUGUUAGCAUGGUGAAUAGUCCCUUGGCAGCACAGUUAGUUCG [#12 Exclusion-TheophyllineB] | 111
25 | GCUUGGGUGGCCCAGCCCUGGCAGGGCGAUACCAGCCCGGUAACGGGCCCUUGGCAGCGCACAUGAGGAUCACCCAUGUGGUGCG [#1 Exclusion - Theophylline A Attempt #28 (HarryS)] | 60.3
26 | UCGGACAUGAGGAUCACCCAUGUAAAUCCUCGAGGACCGGUACGGCCGCCACUCGAACGAGUGGCACGCGAGUGCGCACUCGCGU [aEa] | 47.8
27 | AAUAACAUGAGGAUCACCCAUGUAAAAGAUACCAGAUGCAUGAUGAUCCCUUGGCAGCUUAAAACGCGAUUGAUUACAAUCGCGA [Mat - Same State Theophlline A - Mod of Eli - D12] | 77.9
28 | UGGGUACCGACGGCCGCCACUGAAUAUAGACAUGAGGAUCACCCAUGUAGAGAUCCUAGAAUAAACAGGACCGGGUCUGGUGCUA [Exclusion Tryptophane B GF5] | 239
29 | UCGCUCUGGGUGGAAUCCGGAGAUGUGGAAGGAGCGCUCGAAAGGGCAGGUAGGUCGCCAACGGACAUGAGGAUCACCCAUGUAC [#23 Same State - Arginine A] | 37.5
30 | UGACACAUGAGGAUCACCCAUGUCGCGAAACGAGGACCGGUACGGCCGCCACUCGCACAAACUCCUCUCCAGCACCAGCUUUUAG [theeternabot_sameState_MS2_Trp_A_3] | 28.2
31 | GCCAUCGGCGGAAGCCGAUGGUAUACGGAAGGAGCGCACGAAAGUGCAGGUAGGUCGCUGAACAUGAGGAUCACCCAUGUAAUAA [#28 Same State - Arginine A] | 36.4
32 | GUAUACAUGAGGAUCACCCAUGUGCCAGAAGGAGCGCUGGAAACGGCAGGUAGGUCGCUGGUAGGUCCUCUAUCUAGACGUUCGG [#17 Exclusion - Arginine A] | 188
33 | UUGGGUUUGUGAAGGAGCGGGAAAUAUAUAUAUAUAAUCCUAACAUGAGGAUCACCCAUGUCCCAGGUAGGUCGCGCGGGUUUGG [12.N] | 63.5
34 | AAAAUAAAUAAAACACGUAACAUGAAGGAUACCAGACAGGAAACUGUCCCUUGGCAGCCUCUACAUGAGGAUCACCCAUGUCGUG [Mat - Same State Theophlline A - Mod of Eli - D17] | 128
